From the supplement of paper PMC12783771
± gives the standard deviation of the averaged measurements.

B1: library; numbered along this chain (parent)
chain: MNIQIGELAKRTACPVVTIRFYEQEGLLPPPGRSRGNFRLYGEEHVERLQFIRHCRSLDMPLSDVRTLLSYRKRPDQDCGEVNMLLDEHIRQVESRIGALLELKHHLVELREACSGARPAQSCGILQGLSDCVCDTRGTTAHPSD

Key:
[1] = variants of: B1; assay: sfGFP reporter fluorescence (15 h) (µM FITC); higher = higher leak; settings: library round: Round 0; ligand: none
In short: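 With 1 µM lead chloride, 30 µM zinc acetate or no metal present, 1 μL Echo-assembled reactions were incubated 15 hr at 30 °C. They contained BL21 Star (DE3) PANOx-SP extract, 30 μg/mL GamS, the pPbrR-sfGFP reporter plasmid and PCR-made linear PbrR templates Echo-normalized to 5 nM. Endpoint sfGFP fluorescence was read on a Synergy Neo2 at 485/528 nm against FITC standards in 50 mM sodium borate pH 8.5. Results are expressed as µM FITC.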

[2] = variants of: B1; assay: sfGFP reporter fluorescence (15 h) (µM FITC); higher = stronger transcriptional activation; settings: library round: Round 0
Method: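 Cell-free (BL21 Star DE3 extract, PANOx-SP) biosensing: 1 µL Echo-assembled reactions with linear PbrR variant templates (5 nM) and pPbrR-sfGFP reporter, with 1 µM Pb (lead chloride), 30 µM Zn (zinc acetate) or no ligand; endpoint sfGFP fluorescence after 15 h at 30 °C, calibrated as µM FITC. Round 0 library (alanine scan, site saturation, combinatorial) of PbrR from Cupriavidus metallidurans; 2 biological replicates.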

Variant	sfGFP reporter fluorescence [1]	sfGFP reporter fluorescence ([2]; ligand: 1 µM Pb)	sfGFP reporter fluorescence ([2]; ligand: 30 µM Zn)
L110G	0.05498 ± 0.00052	0.0548 ± 0.00078	0.0531 ± 0.0031
L110H	0.0638 ± 0.0021	0.081 ± 0.0042	2.52 ± 0.29
Y41A	0.0616 ± 0.0042	0.0605	0.0651 ± 0.0013
Y41S	0.0603 ± 0.00078	0.0612 ± 0.0021	0.0616 ± 0.0015
Y41G	0.0563 ± 0.00078	0.0564 ± 0.001	0.0579 ± 0.0026
Y41T	0.0597 ± 0.0026	0.05974 ± 0.00052	0.0592 ± 0.0039
Y41M	0.0629 ± 0.00078	0.0596 ± 0.0023	0.113 ± 0.0078
L62M	0.066 ± 0.001	0.0962 ± 0.0049	0.533 ± 0.033
L62E	0.06066 ± 0.00026	0.0625 ± 0.0023	0.0658 ± 0.0013
V46P	0.0537 ± 0.0023	0.0592 ± 0.0039	0.0641 ± 0.0042
V46L	0.0542 ± 0.0047	0.0847 ± 0.015	0.811 ± 0.057
V46I	0.0548 ± 0.006	0.0711 ± 0.0062	0.831 ± 0.17
V46Q	0.0544 ± 0.0039	0.0858 ± 0.001	0.755 ± 0.052
V46E	0.0579	0.0806 ± 0.0015	0.724 ± 0.053
E112M	0.06212 ± 0.00026	0.0938 ± 0.0093	0.9465 ± 0.007
E112Y	0.05919 ± 0.00026	0.06395 ± 0.00026	0.198 ± 0.028
E112G	0.0586 ± 0.0026	0.0847 ± 0.0042	1.23 ± 0.12
E112P	0.0557 ± 0.001	0.057 ± 0.00078	0.0561
C114A	0.05607 ± 0.00052	0.0559 ± 0.0013	0.0542
C114Y	0.0585 ± 0.0018	0.0586	0.0544 ± 0.0013
C114H	0.0581 ± 0.0023	0.0586	0.0563 ± 0.0034
C114L	0.0561	0.0583 ± 0.0015	0.0531 ± 0.0015
C114P	0.0552 ± 0.0013	0.0563 ± 0.0013	0.05204 ± 0.00052

Variant	sfGFP reporter fluorescence [1]	sfGFP reporter fluorescence ([2]; ligand: 1 µM Pb)	sfGFP reporter fluorescence ([2]; ligand: 30 µM Zn)
P61N K104V G128I	0.133 ± 0.0086	0.341 ± 0.0067	1.53 ± 0.083
P30S	0.06249 ± 0.00026	0.0801 ± 0.0039	0.651 ± 0.14
P30G	0.05699 ± 0.00026	0.0665 ± 0.0023	0.436 ± 0.021
P61N D64K G128I	0.452 ± 0.022	1.46 ± 0.23	3.51 ± 0.073
N2A	0.0517 ± 0.001	0.0614 ± 0.0065	0.801 ± 0.036
P75A	0.0618 ± 0.0023	0.0711 ± 0.01	0.519 ± 0.049
R33D	0.0651 ± 0.00078	0.06377 ± 0.00052	0.0652
R33H	0.0623 ± 0.00052	0.0607 ± 0.0029	0.0707
R33I	0.05772 ± 0.00026	0.05662 ± 0.00026	0.06542 ± 0.00026
C123Q	0.0585 ± 0.00078	0.05809 ± 0.00026	0.0546 ± 0.0015
C123E	0.0583 ± 0.001	0.0588 ± 0.00078	0.0557 ± 0.001
L126K	0.0597 ± 0.0031	0.05919 ± 0.00026	0.0564 ± 0.001
L126E	0.0594 ± 0.0021	0.05772 ± 0.00026	0.0557 ± 0.001
L85F	0.057 ± 0.0029	0.0559 ± 0.0013	0.0828 ± 0.0021
L85W	0.0618 ± 0.0018	0.0597 ± 0.0036	0.157 ± 0.013
G26A	0.06304 ± 0.00052	0.0724 ± 0.0023	0.512 ± 0.033
I97F	0.0535 ± 0.0042	0.0592 ± 0.0029	0.278 ± 0.036
I97V	0.0563 ± 0.0023	0.0605 ± 0.0026	0.338 ± 0.015
I97R	0.0577 ± 0.0054	0.0564 ± 0.0015	0.116 ± 0.0013
I97S	0.0592 ± 0.0039	0.0722 ± 0.0015	0.554 ± 0.0062
C134K	0.0742 ± 0.00078	0.0891 ± 0.0021	1.71 ± 0.084
C134H	0.0645	0.0913 ± 0.0042	1.05 ± 0.012
C134G	0.0651 ± 0.0029	0.0841 ± 0.0013	1.35 ± 0.059

Variant	sfGFP reporter fluorescence [1]	sfGFP reporter fluorescence ([2]; ligand: 1 µM Pb)	sfGFP reporter fluorescence ([2]; ligand: 30 µM Zn)
C134Q	0.0652	0.0953 ± 0.001	1.33 ± 0.4
G6V	0.0618 ± 0.0013	0.0618 ± 0.0013	0.0651 ± 0.0013
V16Q	0.0663 ± 0.0031	0.112 ± 0.0083	1.425 ± 0.0039
V16T	0.0641 ± 0.0031	0.0982 ± 0.0021	1.14 ± 0.09
D131C	0.05919 ± 0.00026	0.0779 ± 0.0013	0.242 ± 0.062
D131V	0.0641 ± 0.001	0.0905 ± 0.0078	0.984 ± 0.15
D131T	0.06267 ± 0.00052	0.0914 ± 0.012	0.747 ± 0.23
R56A	0.0616	0.0616 ± 0.0026	0.1308 ± 0.00052
L101A	0.0632 ± 0.0013	0.0746 ± 0.0013	0.555 ± 0.17
D64H	0.0682 ± 0.001	0.12 ± 0.0054	1.81 ± 0.088
D64Y	0.61 ± 0.017	1.75 ± 0.51	3.81 ± 0.17
D64G	0.06322 ± 0.00026	0.121 ± 0.0054	1.26 ± 0.049
D64W	0.0815 ± 0.0029	0.167 ± 0.0052	1.64 ± 0.044
P61N L107C	1.34 ± 0.084	2.4 ± 0.077	3.92 ± 0.019
M60K	0.0605 ± 0.001	0.061 ± 0.0018	0.0625 ± 0.0029
M60G	0.0561 ± 0.0015	0.05772 ± 0.00026	0.0588 ± 0.0013
M60L K104V	0.255 ± 0.0057	1.1 ± 0.067	3.17 ± 0.1
P61N D64K L107C	2.69 ± 0.12	3.57 ± 0.046	3.69 ± 0.12
E25A	0.0634 ± 0.0036	0.0823 ± 0.0029	0.611 ± 0.041
P61N K104V L107C G128M	0.584 ± 0.064	2.12 ± 0.083	3.41 ± 0.56
L8A	0.0575 ± 0.0021	0.0667 ± 0.0042	0.313 ± 0.038
G36Y	0.0605 ± 0.0026	0.0691 ± 0.0023	0.275 ± 0.031
G36P	0.05937 ± 0.00052	0.0583 ± 0.001	0.0627 ± 0.0036

Variant	sfGFP reporter fluorescence [1]	sfGFP reporter fluorescence ([2]; ligand: 1 µM Pb)	sfGFP reporter fluorescence ([2]; ligand: 30 µM Zn)
G36H	0.0627 ± 0.0015	0.0793 ± 0.0018	0.772 ± 0.059
V108M	0.05662 ± 0.00026	0.0682 ± 0.0026	0.583 ± 0.019
G128Y	0.0755	0.203 ± 0.018	1.37 ± 0.067
D64K K104V L107C G128M	3.13 ± 0.25	3.98 ± 0.082	3.57 ± 0.84
D64A L68S	0.0623 ± 0.0021	0.0597 ± 0.0026	0.0803 ± 0.0036
M60L P61N D64K L107C	3.0399 ± 0.0023	4.3 ± 0.33	4.24 ± 0.28
H89N	0.0597 ± 0.001	0.0663	0.261 ± 0.015
R111W	0.05937 ± 0.00052	0.0632 ± 0.0018	0.189 ± 0.0042
R111N	0.0583	0.0684 ± 0.00078	0.391 ± 0.032
E7G	0.05882 ± 0.00026	0.0755 ± 0.0042	0.626 ± 0.02
E7M	0.0616 ± 0.0021	0.0854 ± 0.0021	0.859 ± 0.01
E7L	0.06175 ± 0.00026	0.0837 ± 0.0013	0.846 ± 0.052
L68S	0.061 ± 0.0023	0.05882 ± 0.00026	0.0636 ± 0.0039
L68N	0.0588 ± 0.0013	0.05992 ± 0.00026	0.0599 ± 0.0013
R20L	0.06102 ± 0.00026	0.0597 ± 0.0026	0.0671 ± 0.0047
R20F	0.0566 ± 0.0013	0.05846 ± 0.00026	0.0581 ± 0.0039
R20W	0.0625 ± 0.0018	0.06157 ± 0.00052	0.063 ± 0.0015
R20A	0.05772 ± 0.00026	0.0548 ± 0.0018	0.0572 ± 0.001
L28G	0.05882 ± 0.00026	0.0581 ± 0.00078	0.059 ± 0.001
L28C	0.06304 ± 0.00052	0.06487 ± 0.00052	0.14 ± 0.0052
